The source of these data is doi:10.1101/2023.09.20.558697.

Where two headings read alike, the source gives them in different places.

Holding throughout (assay): EMSA
(In EMSA bound probe runs differently from free probe, usually more slowly.)

Series [1] concerns the target T1, RokL6-His6 (Streptomyces coelicolor A3(2) M145, UniProt Q9L112 1-399).
T1 sequence: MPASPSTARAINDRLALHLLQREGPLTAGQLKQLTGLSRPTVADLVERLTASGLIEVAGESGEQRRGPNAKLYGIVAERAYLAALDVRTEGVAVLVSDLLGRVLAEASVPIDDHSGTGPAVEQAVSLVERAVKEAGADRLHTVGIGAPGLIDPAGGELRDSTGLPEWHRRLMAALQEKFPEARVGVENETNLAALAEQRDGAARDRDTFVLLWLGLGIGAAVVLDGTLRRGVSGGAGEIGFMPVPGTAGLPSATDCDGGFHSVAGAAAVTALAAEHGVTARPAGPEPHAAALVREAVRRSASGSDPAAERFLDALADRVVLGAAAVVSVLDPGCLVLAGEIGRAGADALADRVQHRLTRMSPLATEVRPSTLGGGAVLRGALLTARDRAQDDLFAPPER

Series [2] concerns the target T1, RokL6-His6. The source holds these as a separate data set.
The target of series [3] is T1, RokL6-His6. This is another data set of the same source.

B1: RokL6-BS (dsDNA)
DNA 1: CGCACCGGTAATCCACTATCTATCAGGCAGGCTCCCTGATAGTTTACGCCGCGGATTGAC
DNA 2: GTCAATCCGCGGCGTAAACTATCAGGGAGCCTGCCTGATAGATAGTGGATTACCGGTGCG
For the molecule B1, the binding result in the series with RokL6-His6 [1] is recorded as “binds”.

B2: RokL6-M3 (dsDNA)
DNA 1: CGCACCGGTAATCCACTATCGAATTCGCAGGCTCCGGATCCGTTTACGCCGCGGATTGAC
DNA 2: GTCAATCCGCGGCGTAAACGGATCCGGAGCCTGCGAATTCGATAGTGGATTACCGGTGCG
Turning to B2, in the series with RokL6-His6 [2], the binding result was “no binding”.

B3: hrdB-P (dsDNA)
DNA 1: CGGCCCGCCCGCACCGTCGGCCCATTCCCAAGCCGGTGGTCGGCCCCTGTCCGCCGTGGA
DNA 2: TCCACGGCGGACAGGGGCCGACCACCGGCTTGGGAATGGGCCGACGGTGCGGGCGGGCCG
On to B3, for which the binding result in the series with RokL6-His6 [3] is given as “no binding”.
